Consider four molecules from US20250346679A1 (INVOX PHARMA, published 2025).

In assay [1] the target is Human FcRn (Acro Biosystems, FCM-H5286) (human, UniProt P55899 24-297; P61769 21-119). The assay can be described thus: SPR, mAb^2 immobilised, FcRn in flow, pH 6.0, steady state affinity; pH 6.0. An excerpt:
(§1) The neonatal Fc receptor (FcRn) binding is critical for antibody recycling (Martins et al., 2016). […] G1-AA/HeID1.3 was included as an isotype control IgG control lacking mutations in the CH3 domain.
(§2) Briefly, mAb² were individually coated on flow cell 2, 3 and 4 of Series S Sensor Chip CM5 (GE Healthcare, BR100530) to achieve a response of approximately 1000 RU. Flow cell 1 was activated/deactivated but left blank as a reference. Human FcRn (Acro Biosystems, FCM-H5286) or mouse FcRn (R&D systems, 9114-Fc) was dialysed and diluted in MHBS-EP⁺B pH 6.0 or pH 7.4 buffer (10 mM MES, FortéBio, 18-5026; 1×HBS-EP, GE Healthcare, BR100669; 0.1 mg/ml BSA, Sigma, A7906) and injected on flow cell 1, 2, 3 and 4 at 2000-3000 nM with 2-fold dilutions for 1 min at 80 μl/min and then allowed to dissociate in buffer for 3 min. […] Subtracted data (flow cell 2−flow cell 1, flow cell 3−flow cell 1, or flow cell 4−flow cell 1) was analysed using Biacore T200 Evaluation Software 2.0 to identify binding using the model steady state affinity.
(Surface plasmon resonance follows binding to a sensor surface in real time, without labels.)

The target in assay [2] is T1, mouse FcRn (R&D systems, 9114-Fc) (mouse, UniProt Q61559 22-297; P01887 21-119, limits assumed).
T1 sequence (looked up) 1: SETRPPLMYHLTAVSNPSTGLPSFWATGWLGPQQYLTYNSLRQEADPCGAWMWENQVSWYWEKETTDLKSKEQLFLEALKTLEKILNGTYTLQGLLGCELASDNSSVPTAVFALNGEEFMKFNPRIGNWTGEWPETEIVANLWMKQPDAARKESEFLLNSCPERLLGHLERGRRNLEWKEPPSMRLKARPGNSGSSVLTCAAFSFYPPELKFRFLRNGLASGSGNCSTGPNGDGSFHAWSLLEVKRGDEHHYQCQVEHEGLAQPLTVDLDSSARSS
T1 sequence (looked up) 2: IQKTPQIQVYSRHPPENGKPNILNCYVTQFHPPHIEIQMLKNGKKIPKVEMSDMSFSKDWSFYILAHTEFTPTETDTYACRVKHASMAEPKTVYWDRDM
Described as above.
Excerpt: as §1, §2

Assay [3] concerns the target T2, cynomolgus CD137, cell-surface (cynomolgus, UniProt Q07011 24-255 (human entry)).
T2 chain: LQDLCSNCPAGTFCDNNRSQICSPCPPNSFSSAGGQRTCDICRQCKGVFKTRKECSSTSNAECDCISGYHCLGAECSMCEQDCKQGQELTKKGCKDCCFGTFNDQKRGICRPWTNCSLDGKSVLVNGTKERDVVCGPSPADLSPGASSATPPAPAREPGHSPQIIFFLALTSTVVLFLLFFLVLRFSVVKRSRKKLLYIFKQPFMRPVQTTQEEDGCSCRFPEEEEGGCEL
The assay can be described thus: cell-based or functional assay.

Assay [4] has as its target T3, biotinylated hPD-L1-Avi-His (Acro Biosystems, PD1-H82E5) (human, UniProt Q9NZQ7 19-238, biotinylated).
T3 construct: bought; also called Human PD-L1-His; not shown: Avi and His tags of the bought product
The experiment in a line: SPR, mAb^2 captured on Protein A chip, antigen in flow. The procedure: (§3) Briefly, the anti-human CD137/PD-L1 mAb², diluted in HBS-EP buffer (GE Healthcare, BR100188) at 2 μg/ml, were injected individually on flows cell 2, 3 and 4 of a Protein A chip (GE Healthcare, 29127556) at 30 μl/min to achieve a final response of approximately 110 RU. Two different recombinant human PD-L1 antigens were used i.e. hPD-L1-His-Avi (see Example 1.3 for antigen details) and biotinylated hPD-L1-Avi-His (Acrobiosystems, PD-1-H82E5). Human and cynomolgus PD-L1-His (Acrobiosystems, PD-1-C52H4) antigens, diluted in HBS-EP buffer, were injected on flow cell 1, 2, 3 or 4 as appropriate at a concentration range of 81 nM to 0.037 nM with 3-fold dilutions for 4 min at 75 μl/min and then allowed to dissociate in buffer for 10 min. Regeneration was achieved by injecting 10 mM glycine-HCL pH1.5 (GE Healthcare, Human Antibody Capture Kit, BR00356) for 30 sec at a rate of 30 μl/min. Subtracted data (flow cell 2−flow cell 1, flow cell 3−flow cell 1, or flow cell 4−flow cell 1) were analysed using BIAevaluation 3.2 Software (GE Healthcare) to identify binding using the model 1:1 binding with mass transfer, with refractive index (RI) constant 0.

Assay [5] has as its target T4, cPD-L1-His (Acro Biosystems, PD1-C52H4) (cynomolgus, UniProt Q9NZQ7 19-238 (human entry)).
T4 construct: bought; also called Cyno PD-L1-His; Cynomolgus PD-L1-His; not shown: His tag of the bought product
The assay is described as above. As for the experimental part:
as §3

For assay [6], the target named is T5, cCD137-mFc-Avi (cynomolgus; mouse).
T5 construct: also called cynomolgus CD137-mFc-Avi; Cyno CD137-mFc-Avi; not shown: mouse IgG2a Fc domain (mIgG2a Fc)
T5 chain: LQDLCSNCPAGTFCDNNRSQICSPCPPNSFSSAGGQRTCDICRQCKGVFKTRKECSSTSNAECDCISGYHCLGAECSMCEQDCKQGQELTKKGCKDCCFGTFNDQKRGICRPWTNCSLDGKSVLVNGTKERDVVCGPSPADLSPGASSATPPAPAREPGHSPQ
The experiment in a line: SPR, mAb^2 captured by anti-human Fab, antigen in flow. The procedure: (§4) The binding of the anti-human CD137/PD-L1 mAb² to recombinant dimeric human and cynomolgus CD137 antigens was also measured by SPR using a Biacore T200 processing unit (GE Healthcare).
(§5) Briefly, 20 μg/ml anti-human Fab antibody (GE Healthcare, Human Fab Capture kit 28958325) was coated on flow cells 1, 2, 3 and 4 of a Biacore sensor S chip CM5 (GE Healthcare, BR100530) achieving a final response of approximately 5000 RU. […] The recombinant dimeric antigens, human CD137-mFc-Avi or cynomolgus CD137-mFc-Avi (see Example 1.1 for antigen details) diluted in HBS-EP buffer, were injected on flow cell 1, 2, 3 or 4 as appropriate at a concentration range of 81 nM to 0.037 nM with 3-fold dilutions for 4 minutes at 70 μl/min and then allowed to dissociate in buffer for 10 minutes. Regeneration was achieved by injecting 10 mM glycine pH 2.1 (GE Healthcare, Human Fab Capture kit 28958325) for 60 seconds at a rate of 30 μl/min. Data analysis was performed as described in Example 9.1.

For assay [7], the target named is T6, hCD137-mFc-Avi (human; mouse, UniProt Q07011 24-186, biotin on the Avi sequence where the biotinylated form was used).
T6 construct: also called human CD137-mFc-Avi; dimeric human CD137; not shown: mouse IgG2a Fc domain (mIgG2a Fc)
T6 sequence (Q07011 24-186): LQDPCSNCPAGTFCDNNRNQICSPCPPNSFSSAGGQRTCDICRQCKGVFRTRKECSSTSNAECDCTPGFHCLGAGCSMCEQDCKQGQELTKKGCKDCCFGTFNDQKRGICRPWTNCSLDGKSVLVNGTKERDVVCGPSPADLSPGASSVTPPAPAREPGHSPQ
Described as above. The procedure: as §4, §5

Assay [8] addresses human PD-L1, cell-surface (human, UniProt Q9NZQ7 19-290). The experiment in a line: cell-based or functional assay.
Assay [9] has as its target human CD137, cell-surface (human, UniProt Q07011 24-255). The experiment in a line: cell-based or functional assay.
Assay [10] deals with T3, biotinylated hPD-L1-Avi-His (Acro …). The experiment in a line: SPR, antibody captured on Protein A chip, antigen in flow.
The target in assay [11] is T4, cPD-L1-His (Acro Biosystems, PD1-C52H4). The description is as above.

T4 sequence (Q9NZQ7 other isoform, or with tags, fused parts or gaps): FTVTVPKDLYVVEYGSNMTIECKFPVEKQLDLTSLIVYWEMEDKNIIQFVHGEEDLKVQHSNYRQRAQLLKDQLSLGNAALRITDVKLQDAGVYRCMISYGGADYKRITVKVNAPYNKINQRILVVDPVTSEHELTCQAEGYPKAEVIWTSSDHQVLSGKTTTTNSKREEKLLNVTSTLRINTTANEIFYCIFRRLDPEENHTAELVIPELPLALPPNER
T3 sequence (Q9NZQ7 19-238): as the sequence (Q9NZQ7 other isoform, or with tags, fused parts or gaps) above, with T33A, S34A, N62S, Q68R, R82Q, L173F, A185T, I192T, L215H counted along it
Human FcRn (Acro Biosystems, FCM-H5286), sequence (P55899 24-297 limits assumed, chain 1 of 2): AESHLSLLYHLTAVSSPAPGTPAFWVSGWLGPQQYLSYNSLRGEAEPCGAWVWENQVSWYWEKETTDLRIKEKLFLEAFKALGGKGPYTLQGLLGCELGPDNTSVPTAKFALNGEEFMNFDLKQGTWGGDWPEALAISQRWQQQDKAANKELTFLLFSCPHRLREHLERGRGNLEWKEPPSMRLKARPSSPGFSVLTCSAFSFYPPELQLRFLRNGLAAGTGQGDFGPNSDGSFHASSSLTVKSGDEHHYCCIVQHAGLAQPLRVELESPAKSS
Human FcRn (Acro Biosystems, FCM-H5286), sequence (P61769 21-119 limits assumed, chain 2 of 2): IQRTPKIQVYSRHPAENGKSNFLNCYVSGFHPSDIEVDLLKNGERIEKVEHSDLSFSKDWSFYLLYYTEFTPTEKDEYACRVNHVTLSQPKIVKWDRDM
human PD-L1, cell-surface, sequence (Q9NZQ7 19-290): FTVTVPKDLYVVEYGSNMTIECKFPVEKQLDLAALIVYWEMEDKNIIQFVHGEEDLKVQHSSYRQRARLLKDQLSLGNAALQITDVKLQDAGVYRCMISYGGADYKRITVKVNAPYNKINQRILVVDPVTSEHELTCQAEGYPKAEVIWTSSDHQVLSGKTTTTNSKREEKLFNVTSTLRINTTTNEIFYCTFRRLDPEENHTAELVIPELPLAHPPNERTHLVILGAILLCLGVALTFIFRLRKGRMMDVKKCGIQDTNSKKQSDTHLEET

B1: FS22-172-003-AA/lam-G02v3 (bispecific antibody, human IgG1, L234A L235A)
heavy: EVQLVQSGAEVKRPGASVKVSCKASGYTFTSYGISWVRQAPGQGLEWMGWISAYSGGTNYAQKLQGRVTMTTDTSTSTAYMELRSLRSDDTAVYYCARDLFPTIFGVSYYYYWGQGTLVTVSSASTKGPSVFPLAPSSKSTSGGTAALGCLVKDYFPEPVTVSWNSGALTSGVHTFPAVLQSSGLYSLSSVVTVPSSSLGTQTYICNVNHKPSNTKVDKKVEPKSCDKTHTCPPCPAPEAAGGPSVFLFPPKPKDTLMISRTPEVTCVVVDVSHEDPEVKFNWYVDGVEVHNAKTKPREEQYNSTYRVVSVLTVLHQDWLNGKEYKCKVSNKALPAPIEKTISKAKGQPREPQVYTLPPSRDELPYIIPPYNQVSLTCLVKGFYPSDIAVEWESNGQPENNYKTTPPVLDSDGSFFLYSKLTVGADRWLEGNVFSCSVMHEALHNHYTQKSLSLSPG
light: QSALTQPASVSGSPGQSITISCTGTSSDVGGYNYVSWYQQFPGKAPKLMIFEVTNRPSGVSDRFSGSKSDNTASLTISGLQAEDEAEYYCSSFKRGSTLVVFGGGTKLTVLGQPAAAPSVTLFPPSSEELQANKATLVCLISDFYPGAVTVAWKADSSPVKAGVETTTPSKQSNNKYAASSYLSLTPEQWKSHRSYSCQVTHEGSTVEKTVAPTECS
notes: see recheck
On to B1, for which the Kd in assay [1] is 1220 nM; in assay [2], 167 nM; in assay [4] it was 1.54 nM; in assay [5], 1.91 nM; in assay [6], 2.2 nM; in assay [7] it was 1.3 nM. Also, in [3], the “EC50 (nM) (crosslinked), mIL-2 release, DO11.10.cCD137 with HEK.cyPD-L1” value is 0.08 nM. In addition, in [3], the “Emax (pg/ml) (crosslinked), mIL-2 release, DO11.10.cCD137 with HEK.cyPD-L1” value came out at 12300 pg/mL.

B2: FS22-053-008-AA/E12v2 (bispecific antibody, human IgG1, kappa, L234A L235A)
heavy: EVQLVQSGAEVKRPGASVKVSCKASGYPFTSYGISWVRQAPGQGLEWMGWISAYSGGTNYAQKLQGRVTMTTDTSTSTAYMELRSLRSDDTAVYYCARDLFPTIFGVSYYYYWGQGTLVTVSSASTKGPSVFPLAPSSKSTSGGTAALGCLVKDYFPEPVTVSWNSGALTSGVHTFPAVLQSSGLYSLSSVVTVPSSSLGTQTYICNVNHKPSNTKVDKKVEPKSCDKTHTCPPCPAPEAAGGPSVFLFPPKPKDTLMISRTPEVTCVVVDVSHEDPEVKFNWYVDGVEVHNAKTKPREEQYNSTYRVVSVLTVLHQDWLNGKEYKCKVSNKALPAPIEKTISKAKGQPREPQVYTLPPSRDELNPPYLFSNQVSLTCLVKGFYPSDIAVEWESNGQPENNYKTTPPVLDSDGSFFLYSKLTVDYWRWLEGNVFSCSVMHEALHNHYTQKSLSLSPG
light: DIQMTQSPSTLSASVRDRVIITCRASQSIGNRLAWYQHKPGKAPKLLIYEASTSETGVPSRFSGSGSGTDFTLTISSLQPEDFATYYCQQSYSTPYTFGQGTKLEIKRTVAAPSVFIFPPSDEQLKSGTASVVCLLNNFYPREAKVQWKVDNALQSGNSQESVTEQDSKDSTYSLSSTLTLSKADYEKHKVYACEVTHQGLSSPVTKSFNRGEC
As to B2, the Kd in assay [1] amounted to 998 nM. Binding in assay [2] was characterised by a dissociation constant (Kd) of 177 nM. Moreover, in assay [3], the “EC50 (nM) (crosslinked), mIL-2 release, DO11.10.cCD137 with HEK.cyPD-L1” value was found to be 0.08 nM and the “Emax (pg/ml) (crosslinked), mIL-2 release, DO11.10.cCD137 with HEK.cyPD-L1” value was determined as 9010 pg/mL. Also, in assay [8], the “EC50 (nM), IFN-γ release, human MLR” value is 0.04 nM and the “Emax (pg/ml), IFN-γ release, human MLR” value was determined as 3130 pg/mL. The same molecule returned a Kd in assay [4] of 0.19 nM. The same molecule gave a Kd in [5] of 0.25 nM. Moreover, in [9], the “EC50 (nM), hIL-2 release, CD8+ T cells, donor 171115A, HEK.hPD-L1 XL” value is 0.1 nM; the “EC50 (nM), hIL-2 release, CD8+ T cells, donor 171115A, MDA-MB-231 XL” value came out at 0.01 nM; the “EC50 (nM), hIL-2 release, CD8+ T cells, donor 171115B, HEK.hPD-L1 XL” value came to 0.11 nM; the “EC50 (nM), hIL-2 release, CD8+ T cells, donor 171115B, MDA-MB-231 XL” value turned out to be 0.02 nM. In assay [6], this molecule showed a Kd of 0.6 nM. The molecule further came in with an equilibrium dissociation constant (Kd) in [7] of 2.6 nM.

B3: G1-AA/E05v2 (antibody, human IgG1, kappa, L234A L235A, V domains shown)
VH: EVQLVQSGAEVKRPGASVKVSCKASGYTFTSYGISWVRQAPGQGLEWMGWISAYSGGTNYAQKLQGRVTMTTDTSTSTAYMELRSLRSDDTAVYYCARDLFPTIFGVSYYYYWGQGTLVTVSS
VL: DIQMTQSPSTLSASVGDRVTITCRASQSISGRLAWYQQKPGKAPNLLIYEASNLESGVPSRFSGSGSGTEFTLTISSLQPEDFATYYCQQSYSTPRVTFGQGTKVEIKR
notes: anti-PD-L1 IgG1 with LALA
Consider B3, for which the Kd in [10] turned out to be 0.5 nM; in assay [11], 0.89 nM.

B4: G1-AA/G12v2 (antibody, human IgG1, kappa, L234A L235A, V domains shown)
VH: EVQLVQSGAEVKRPGASVKVSCKASGYTFTSYGISWVRQAPGQGLEWMGWISAYSGGTNYAQKLQGRVTMTTDTSTSTAYMELRSLRSDDTAVYYCARDLFPTIFGVSYYYYWGQGTLVTVSS
VL: DIQMTQSPSTLSASVGDRVTITCRASQSISGRLAWYQQKPGKAPNLLIYEASNLESGVPSRFSGSGSGTEFTLTISSLQPEDFATYYCQQSYSWPRTFGQGTKVEIKR
notes: anti-PD-L1 IgG1 with LALA
Take B4: the figures for the equilibrium dissociation constant (Kd) in [10] and in [11] were 0.44 nM and 0.75 nM, respectively.

The term Kd denotes the concentration at which binding is half-saturated. Low readings indicate higher affinity, high ones lower affinity.
